For orientation: Kd means the free concentration of one partner at which half of the binding sites on the other are occupied at equilibrium, for simple one-to-one binding.

The values that follow come from article PMC12104086 (2025).

Holding throughout (experiment): SPR
On the technique in general: SPR reads the build-up and loss of mass on a sensor chip optically.

Test [1] addresses recombinant human histone H3 (human, UniProt P68431 1-136).
Test [2] has as its target T1, recombinant human alphavbeta3 integrin (human, UniProt P06756 31-1048; P05106 27-718).
T1 chain 1: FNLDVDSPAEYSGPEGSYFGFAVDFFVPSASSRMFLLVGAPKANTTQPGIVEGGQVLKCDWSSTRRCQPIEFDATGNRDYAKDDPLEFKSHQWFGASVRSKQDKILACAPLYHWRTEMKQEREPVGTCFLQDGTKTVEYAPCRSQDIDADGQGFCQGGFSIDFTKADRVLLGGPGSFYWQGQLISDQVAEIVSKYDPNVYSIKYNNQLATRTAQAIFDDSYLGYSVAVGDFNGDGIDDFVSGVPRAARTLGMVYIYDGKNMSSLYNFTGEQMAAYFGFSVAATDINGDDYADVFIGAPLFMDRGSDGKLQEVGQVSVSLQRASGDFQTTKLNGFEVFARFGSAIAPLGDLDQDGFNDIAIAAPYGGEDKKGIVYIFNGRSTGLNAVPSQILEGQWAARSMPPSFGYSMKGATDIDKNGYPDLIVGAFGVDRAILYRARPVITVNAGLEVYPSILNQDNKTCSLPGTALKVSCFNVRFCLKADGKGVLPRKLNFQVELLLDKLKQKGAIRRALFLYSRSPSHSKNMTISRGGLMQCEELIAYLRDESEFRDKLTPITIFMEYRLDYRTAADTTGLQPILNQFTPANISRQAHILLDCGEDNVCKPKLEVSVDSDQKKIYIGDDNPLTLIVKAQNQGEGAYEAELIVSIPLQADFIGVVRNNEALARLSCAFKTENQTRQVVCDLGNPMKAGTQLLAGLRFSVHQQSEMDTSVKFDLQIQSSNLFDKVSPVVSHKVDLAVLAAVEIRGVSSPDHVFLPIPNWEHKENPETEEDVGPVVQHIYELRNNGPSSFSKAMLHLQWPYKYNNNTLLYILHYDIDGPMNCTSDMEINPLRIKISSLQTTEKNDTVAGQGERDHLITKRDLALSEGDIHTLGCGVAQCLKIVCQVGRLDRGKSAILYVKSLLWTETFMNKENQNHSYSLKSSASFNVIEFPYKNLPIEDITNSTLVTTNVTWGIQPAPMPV
T1 chain 2: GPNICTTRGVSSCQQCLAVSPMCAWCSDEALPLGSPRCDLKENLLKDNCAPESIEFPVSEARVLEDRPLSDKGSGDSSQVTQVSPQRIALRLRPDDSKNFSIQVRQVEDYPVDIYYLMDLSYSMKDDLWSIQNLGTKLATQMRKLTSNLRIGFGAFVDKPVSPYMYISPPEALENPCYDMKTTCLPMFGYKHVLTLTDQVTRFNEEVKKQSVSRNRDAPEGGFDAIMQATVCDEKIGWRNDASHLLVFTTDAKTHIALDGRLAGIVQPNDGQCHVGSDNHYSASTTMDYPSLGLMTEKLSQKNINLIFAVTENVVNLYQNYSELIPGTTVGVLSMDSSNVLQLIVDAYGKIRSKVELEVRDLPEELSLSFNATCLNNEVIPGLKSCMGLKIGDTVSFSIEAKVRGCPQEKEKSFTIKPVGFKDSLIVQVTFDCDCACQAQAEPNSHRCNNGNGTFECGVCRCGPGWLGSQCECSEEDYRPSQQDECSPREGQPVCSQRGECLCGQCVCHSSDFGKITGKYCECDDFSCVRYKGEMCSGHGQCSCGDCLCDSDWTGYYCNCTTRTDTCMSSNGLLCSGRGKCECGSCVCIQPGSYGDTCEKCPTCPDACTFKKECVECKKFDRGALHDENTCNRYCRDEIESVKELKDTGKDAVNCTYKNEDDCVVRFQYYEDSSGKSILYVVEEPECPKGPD

Test [3] deals with T2, recombinant mouse cold-inducible RNA-binding protein (mouse, UniProt P60824 1-172).
T2 chain: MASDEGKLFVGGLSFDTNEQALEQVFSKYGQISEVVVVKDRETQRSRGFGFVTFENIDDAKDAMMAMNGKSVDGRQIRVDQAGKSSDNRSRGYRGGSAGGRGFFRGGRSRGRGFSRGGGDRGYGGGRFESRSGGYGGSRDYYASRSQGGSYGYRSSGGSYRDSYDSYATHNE

Test [4] deals with T3, recombinant human high mobility group box 1 (human, UniProt P09429 1-215).
T3 chain: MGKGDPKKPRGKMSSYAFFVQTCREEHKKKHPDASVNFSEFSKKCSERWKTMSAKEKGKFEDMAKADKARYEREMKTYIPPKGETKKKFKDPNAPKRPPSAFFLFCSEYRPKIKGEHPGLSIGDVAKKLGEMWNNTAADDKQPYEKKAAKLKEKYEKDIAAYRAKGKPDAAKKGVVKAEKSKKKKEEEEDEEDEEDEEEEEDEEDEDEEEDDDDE

Turning to GNFNSSNIMKTCLQNRGD [opsonic peptide 18], the Kd was found to be 2.1 nM in test [1], 1.1 nM in test [2], 1.5 nM in test [3] and 3.9 nM in test [4].
